# Target: His6-tagged cytokeratin-19 (Novus Biologicals) (UniProt P08727)
# Assay: MST; His6-cytokeratin-19 labelled with RED-tris-NTA 2nd Generation dye, kept at 25 nM; BspC full-length or V-domain titrated from 5 uM to 0.153 nM; premium capillaries, Monolith NT.115 Pico, 20% excitation power
# Sequence of UniProt P08727 (P08727 whole entry): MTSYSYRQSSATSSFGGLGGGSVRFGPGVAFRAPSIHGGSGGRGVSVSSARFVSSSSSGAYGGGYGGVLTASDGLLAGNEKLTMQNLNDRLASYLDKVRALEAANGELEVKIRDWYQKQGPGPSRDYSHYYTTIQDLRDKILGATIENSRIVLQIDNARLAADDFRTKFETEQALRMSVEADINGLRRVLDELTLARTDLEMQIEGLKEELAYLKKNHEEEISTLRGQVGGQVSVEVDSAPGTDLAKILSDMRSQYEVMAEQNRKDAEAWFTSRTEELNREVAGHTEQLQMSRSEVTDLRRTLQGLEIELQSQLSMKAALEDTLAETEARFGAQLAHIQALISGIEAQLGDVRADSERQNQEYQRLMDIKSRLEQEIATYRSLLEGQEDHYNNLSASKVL
row,Substance,Kd
1,BspC V-domain protein (recombinant BspC consisting of only the variable domain) (domain or fragment),362 nM
2,full-length BspC protein (Group B streptococcal surface protein C) (natural protein),32.9 nM

# Source: paper PMC9600255
